Reference: patent US20250313611A1 (VIB VZW, published 2025)
Numbering of substitutions follows the chain as printed. Read-outs that look alike come from different tables or passages of the source.

T1: recombinant MERS-COV spike protein (MERS-CoV, UniProt K9N5Q8 18-1291)
T1 sequence: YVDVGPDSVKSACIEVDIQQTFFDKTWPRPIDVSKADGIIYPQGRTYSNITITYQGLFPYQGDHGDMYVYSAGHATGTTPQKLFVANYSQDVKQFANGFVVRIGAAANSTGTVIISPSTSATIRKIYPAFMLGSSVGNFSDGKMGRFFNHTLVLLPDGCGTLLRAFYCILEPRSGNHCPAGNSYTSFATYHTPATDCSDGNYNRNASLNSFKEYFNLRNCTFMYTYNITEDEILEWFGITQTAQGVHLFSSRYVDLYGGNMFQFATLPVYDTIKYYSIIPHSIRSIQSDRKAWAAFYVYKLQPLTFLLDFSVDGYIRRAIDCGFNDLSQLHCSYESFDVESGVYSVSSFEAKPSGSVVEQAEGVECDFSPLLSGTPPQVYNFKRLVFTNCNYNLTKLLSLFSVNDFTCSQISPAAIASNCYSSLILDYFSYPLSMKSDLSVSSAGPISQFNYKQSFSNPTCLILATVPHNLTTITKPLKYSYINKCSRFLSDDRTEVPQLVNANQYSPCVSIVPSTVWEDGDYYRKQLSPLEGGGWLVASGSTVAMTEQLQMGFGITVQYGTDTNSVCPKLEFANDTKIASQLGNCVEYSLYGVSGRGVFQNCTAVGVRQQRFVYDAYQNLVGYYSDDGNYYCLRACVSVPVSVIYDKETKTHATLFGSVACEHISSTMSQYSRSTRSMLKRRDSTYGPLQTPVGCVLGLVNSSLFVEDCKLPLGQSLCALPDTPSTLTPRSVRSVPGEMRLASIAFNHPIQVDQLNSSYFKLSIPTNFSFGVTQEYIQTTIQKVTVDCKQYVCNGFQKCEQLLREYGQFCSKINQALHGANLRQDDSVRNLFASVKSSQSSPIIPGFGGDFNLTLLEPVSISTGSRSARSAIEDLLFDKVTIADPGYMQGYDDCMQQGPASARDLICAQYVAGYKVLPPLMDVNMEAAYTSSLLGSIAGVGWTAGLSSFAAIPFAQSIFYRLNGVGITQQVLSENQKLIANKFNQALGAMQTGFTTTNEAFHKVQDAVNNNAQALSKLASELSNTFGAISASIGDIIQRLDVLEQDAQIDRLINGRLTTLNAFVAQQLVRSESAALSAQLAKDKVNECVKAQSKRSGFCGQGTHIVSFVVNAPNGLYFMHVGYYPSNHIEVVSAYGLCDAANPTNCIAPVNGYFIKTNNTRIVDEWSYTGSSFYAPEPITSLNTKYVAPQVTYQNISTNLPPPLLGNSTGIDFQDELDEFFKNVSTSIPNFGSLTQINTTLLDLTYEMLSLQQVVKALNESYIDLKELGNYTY

T2: recombinant HKU1 spike protein (HCoV-HKU1, UniProt Q5MQD0 13-1276)
T2 sequence: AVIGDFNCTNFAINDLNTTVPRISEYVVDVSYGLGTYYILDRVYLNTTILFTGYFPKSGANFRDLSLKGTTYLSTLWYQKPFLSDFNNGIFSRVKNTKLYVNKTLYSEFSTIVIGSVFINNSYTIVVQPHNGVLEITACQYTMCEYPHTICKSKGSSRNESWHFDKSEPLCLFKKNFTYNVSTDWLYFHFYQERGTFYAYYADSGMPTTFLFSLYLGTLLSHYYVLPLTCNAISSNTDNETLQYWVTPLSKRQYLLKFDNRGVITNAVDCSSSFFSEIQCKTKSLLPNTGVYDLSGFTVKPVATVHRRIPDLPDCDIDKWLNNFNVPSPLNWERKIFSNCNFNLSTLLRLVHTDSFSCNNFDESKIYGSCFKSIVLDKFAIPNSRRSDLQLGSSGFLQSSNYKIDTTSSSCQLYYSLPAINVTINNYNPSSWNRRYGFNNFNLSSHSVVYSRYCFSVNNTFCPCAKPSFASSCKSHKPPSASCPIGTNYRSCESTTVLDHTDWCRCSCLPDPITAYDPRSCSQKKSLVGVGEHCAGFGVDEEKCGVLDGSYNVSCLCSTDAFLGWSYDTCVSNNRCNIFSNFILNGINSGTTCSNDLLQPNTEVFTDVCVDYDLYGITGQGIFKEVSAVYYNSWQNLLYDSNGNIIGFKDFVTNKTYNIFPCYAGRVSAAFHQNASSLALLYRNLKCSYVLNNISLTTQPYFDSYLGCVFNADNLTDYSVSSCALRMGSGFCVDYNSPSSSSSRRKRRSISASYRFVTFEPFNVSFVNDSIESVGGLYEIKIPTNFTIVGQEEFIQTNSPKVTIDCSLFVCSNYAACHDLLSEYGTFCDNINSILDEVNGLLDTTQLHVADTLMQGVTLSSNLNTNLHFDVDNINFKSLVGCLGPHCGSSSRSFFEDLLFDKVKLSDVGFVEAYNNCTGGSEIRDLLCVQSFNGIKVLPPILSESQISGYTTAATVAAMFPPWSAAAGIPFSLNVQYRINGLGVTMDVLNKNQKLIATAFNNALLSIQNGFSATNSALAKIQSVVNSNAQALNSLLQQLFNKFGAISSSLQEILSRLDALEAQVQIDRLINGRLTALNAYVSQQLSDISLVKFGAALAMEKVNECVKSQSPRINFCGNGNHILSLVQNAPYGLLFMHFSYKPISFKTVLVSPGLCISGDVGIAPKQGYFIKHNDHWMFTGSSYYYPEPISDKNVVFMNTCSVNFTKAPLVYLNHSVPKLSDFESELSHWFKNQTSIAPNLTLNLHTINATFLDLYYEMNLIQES

B1: 3.83 (VHH)
VHH: QVQLQESGGGLVQPGDSLRLSCVLSGGVFTSYAMGWFRQAPGKEREFLAAITFNSDATYYADSVKGRFTISRDNAKNTAYLQMNSLKPNDTAVYSCAAGGNHYNPQYYHDYDKYDHWGQGTQVTVSS
B2: VHH R3_DC5 (VHH)
VHH: QVQLQESGGGLVQAGDSLRLSCAASGRIFSTYTMGWFRQAPGMEREFVAAIRWSGSTVYYADSVKGRFTISRDNAKNTVYLQMNSLKPEDTAVYYCAAARVSKANYGTLWYRATGLYDYWGQGTQVTVSS
B3: VHH R3_DC19 (VHH)
VHH: QVQLQESGGGLVQPGDSLRLSCAVSGRPFSTYTMGWFRQAPGKEREFVAAMRWSGGTIYYADSVKGRFTISRDNDKNTVNLEMNSLKPEDTAVYYCAAAYVSKANYGSLWYRASGLYDYWGQGTQVTVSS
B4: VHH R3_DC21 (VHH)
VHH: B3 VHH with P14A, K65R

What was measured:
[1] = molecular target: T3, SARS-COV-2 RBD (His-tagged, Sinobiologicals) (SARS-CoV-2 (Wuhan), UniProt P0DTC2 319-541); test: ELISA, periplasmic extract 1/10, OD450 antigen/OD450 BSA
[2] = molecular target: T3, SARS-COV-2 RBD (His-tagged, …); test: as above; remark: listed apart in the source
[3] = molecular target: T1, recombinant MERS-COV spike protein; test: ELISA, periplasmic extract 1/10, heat map of binding (%)
[4] = molecular target: T2, recombinant HKU1 spike protein; test: as above

| Binder | binding result [1] | binding result [2] | binding result [3] | binding result [4] |
| --- | --- | --- | --- | --- |
| B1 | binds |  |  |  |
| B2 |  | no binding (tested: extract 1/10, concentration not given) | no binding (tested: extract 1/10, concentration not given) | no binding (tested: extract 1/10, concentration not given) |
| B3 |  | no binding (tested: extract 1/10, concentration not given) | no binding (tested: extract 1/10, concentration not given) | no binding (tested: extract 1/10, concentration not given) |
| B4 |  | no binding (tested: extract 1/10, concentration not given) | no binding (tested: extract 1/10, concentration not given) | no binding (tested: extract 1/10, concentration not given) |
